Experimental data reported in publication PMC10953408.

Legend:
LgBit‐VEGFR‐2 = LgBit‐VEGFR‐2 (UniProt P35968); assay: split reporter (BiFC, NanoBiT); HiBit-IL23R (80 ng per well) co-transfected with LgBit-IL12Rβ1 or LgBit-VEGFR-2 (20 ng per well) in HEK293T cells; luminescence given as percent of that of the LgBit receptor alone with 50 nM purified HiBit; HBSS/0.1% BSA, 37°C
LgBit‐IL12Rβ1 [1] = target: LgBit‐IL12Rβ1 (UniProt P42701); assay: as above
LgBit‐IL12Rβ1 [2] = target: LgBit‐IL12Rβ1 (UniProt P42701); assay: split reporter (BiFC, NanoBiT); complementary NanoBiT-tagged receptor constructs co-expressed in HEK293T cells; luminescence of living cells in HBSS with 1 mg/ml BSA after furimazine, plate reader; with or without 10 nM IL-23, with or without co-expressed untagged IL12Rβ1
LgBit‐IL23R = LgBit‐IL23R (UniProt Q5VWK5); assay: as above
[3] = target: NanoBiT complemented heteromer of HiBit‐IL23R and LgBit‐IL12Rβ1 (UniProt Q5VWK5)
[4] = target: NanoBiT complemented heteromer of HiBit‐IL23R and LgBit‐IL12Rβ1 (UniProt Q5VWK5); assay: FRET or BRET; NanoBiT BRET saturation: concentration titration of IL23-TMR for 1 h on living HEK293T cells expressing complemented NanoBiT receptors, with or without unlabelled IL-23; HBSS with 1 mg/ml BSA; one site total and nonspecific fit
[5] = target: Trimeric or multimeric species of HiBit‐IL23R, LgBit‐IL23R and IL12Rβ1 (UniProt Q5VWK5); assay: as above

Substance: HiBit‐IL23R (from UniProt Q5VWK5 24-629) (receptor)
- luminescence as percent of that of LgBit-VEGFR-2 with 50 nM purified HiBit (LgBit‐VEGFR‐2): 11.6%
- luminescence as percent of that of LgBit-IL12Rβ1 with 50 nM purified HiBit (LgBit‐IL12Rβ1 [1]): 73%
- fold luminescence over the mean of the receptor constructs expressed in isolation (LgBit‐IL12Rβ1 [2]): 73.3 fold
- fold lower luminescence than the equivalent heteromeric condition (LgBit‐IL23R): 2.12 fold
- fold stronger luminescence than the SmBit homomer (LgBit‐IL23R): 6.36 fold

Substance: Recombinant IL‐23 (from UniProt Q9NPF7 20-189; P29460 23-328) (ligand)
- EC50 of STAT3 phosphorylation (phospho-STAT3 AlphaLISA), increasing concentrations of IL-23 on cells expressing HiBit-IL23R and LgBit-IL12Rβ1 [3]: 193 pM

Substance: SmBit‐IL23R (from UniProt Q5VWK5 24-629) (receptor)
- fold lower luminescence than HiBit-IL23R with LgBit-IL12Rβ1 (LgBit‐IL12Rβ1 [2]): 6.19 fold
- fold luminescence over the mean of the receptor constructs expressed in isolation (LgBit‐IL12Rβ1 [2]): 10.3 fold
- fold lower luminescence than the equivalent heteromeric condition (LgBit‐IL23R): 2.18 fold

Substance: Tetramethylrhodamine (TMR) tagged IL‐23 (from UniProt Q9NPF7 20-189; P29460 23-328) (ligand)
- Kd [4]: 234 pM
- Kd [5]: 36.2 pM
